Data from IntAct's records for PubMed 20126385.

B1: Adenomatous polyposis coli protein-related protein 1 (Caenorhabditis elegans), Q21227-1 (parent)
chain: MSSSSSDENETTIHRTGSNTGGSGIYSQPRAGSSKRTSNVRHDVSDVDDEEEHYARFREDTAIEVDDAITVLLSSLHFEHKRDIVPTDEDDNKLRELHEKIFALITSESDVNRKRRLKKALPASNCVREQVYYLRRKPSTPPASYYHRLNAALHTIVKESFGEEYRKVATVLGLVEALAEVLILEVHTFGINETNPGEHRNIRKLIANALTNLTYGQIHSKRRLCSYDGFIRCVVRIVIESPNITQVYAGLIRNLSWNADSGMSEALQPTVHALSIAAVHAHTHRFDVTATLSALWNLAGHSVENKRTICDTPNCLKVLASLLSPDARFTSLVDSATGILKYVSQYLANTSTHLELRSLLITRMLTLLKSASFTCVTNTLGAIANLIVKDPHMQQMIRQDMAAVQQLNVLRNSNRDDIRTAVKSVLNTLNQPCSHRYGDMSHSVGGGATGMQMLSEPQLQMQTSHHAYHGTASPRLLSLRATRASPGKYIQPQAQQQLIQTPQVDQRSSSLPRHFAVQRNGFVMAQSYNQQMDQHQQQQMIYQLQQQQQIMFQTEDQAQMEHHQQIMYLQQQQQQFHQIQQQQQMQKAQEADPVPPTDDDLDIPTSTVMGTRSNSERSLGSMNPGSVMTNWNSSLDTAANSSRALSPVSYNDIPASPTMCAQVFNLPKSTESEHHQLTSQQQNTTHYSSGSANTMTRSDGATTVPMDNIITPTYAILNPILVHEQTPNGTVPRKTSEELDSPDDVLPGPSLEEEEGDYAIIGGAAQKTDDELLTRSIQSEMPTSSSTPKMKVSPRLNGFFSPTQKTTSSPAWSHPDTSPIPKSSSHRTQPNRRQDASDADRLLMESIMSEMPKSRIISPRLAGTQQYLEPEPERRSHSKNEEADRRDAFTASHEPSDHNGIDVARGSDWSPQQQLHRMESLESQASSEDSFGLTAEEPNSSTSGAAANTMRFDDEIDASLPMDCVDDDDYDYTYDHFEDYEDEEDPDATQFDDGVDAQLTIDCSMISSGSGSSQRNETTTTSRDSKALATSTPKGSASSLPGVRQATRVSTNGKSRLPVPKTNGSLVDKNPKPIIASRRPRLPPKPTLLKDKHYPEEDSIENQTRDDTIYVNAPVVEAEQERIYMNALKQQKNIEQSPSIGNGSPIAKSAIVTPYNYQKPPFTGRNNGEMSNEKSVTPNPKQMLVTIV
partner: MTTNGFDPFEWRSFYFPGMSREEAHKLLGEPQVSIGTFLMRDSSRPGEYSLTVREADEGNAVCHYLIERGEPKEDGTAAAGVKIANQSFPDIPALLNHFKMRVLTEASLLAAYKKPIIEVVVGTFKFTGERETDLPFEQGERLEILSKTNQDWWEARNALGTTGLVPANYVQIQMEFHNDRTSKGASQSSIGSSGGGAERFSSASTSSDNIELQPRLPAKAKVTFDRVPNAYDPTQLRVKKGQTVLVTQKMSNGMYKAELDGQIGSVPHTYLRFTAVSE

Variants of: B1
Conditions: with ced2_caeel ced-2, Q9NHC3

Variant | effect of a mutation on the interaction
Y489A | decreasing interaction
